This is an account of results in patent US20100048677A1 (NEW YORK BLOOD CENTER, published 2010).

Chain of UniProt Q8IYS1 (Q8IYS1 whole entry): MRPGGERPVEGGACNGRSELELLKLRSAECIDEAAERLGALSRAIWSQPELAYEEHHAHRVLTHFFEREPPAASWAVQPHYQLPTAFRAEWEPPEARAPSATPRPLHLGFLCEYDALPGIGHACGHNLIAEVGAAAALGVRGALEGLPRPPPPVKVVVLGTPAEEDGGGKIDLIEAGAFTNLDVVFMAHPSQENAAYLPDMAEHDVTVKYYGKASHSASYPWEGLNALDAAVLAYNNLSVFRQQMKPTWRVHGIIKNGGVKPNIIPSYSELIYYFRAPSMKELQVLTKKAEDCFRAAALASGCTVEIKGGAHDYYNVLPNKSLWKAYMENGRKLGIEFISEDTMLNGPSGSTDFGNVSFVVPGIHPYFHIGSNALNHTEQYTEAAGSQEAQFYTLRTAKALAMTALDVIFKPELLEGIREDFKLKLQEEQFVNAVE

The experiment concerns the target αIIb (INTEGRIN, ALPHA 2B; PLATELET GLYCOPROTEIN IIB OF IIB/IIIA COMPLEX, ANTIGEN CD41) (human) (UniProt P08514). Put plainly: αIIb complexes captured, mass spectrometry; No. Expts 1.
In turn, “CARS2 (HYPOTHETICAL PROTEIN FLJ12118) (from UniProt Q9HA77 1-564)” showed a #Peptides of 9 peptides.

Substance “FERM AND PDZ DOMAIN CONTAINING 1 (from UniProt Q5SYB0 1-1578)” registered a #Peptides of 4 peptides.

“AMINOLEVULINATE, DELTA-, … (from UniProt P13716 1-330)”: the #Peptides was found to be 8 peptides.

The substance CULLIN 5 (from UniProt Q93034 1-780) yielded a #Peptides of 5 peptides.

Substance “ALDO-KETO REDUCTASE FAMILY 7, MEMBER A2 (AFLATOXIN ALDEHYDE REDUCTASE) (from UniProt O43488 39-359)” returned a #Peptides of 19 peptides.

As to “DEAH (ASP-GLU-ALA-HIS) BOX PO… 38 (from UniProt Q92620 2-1227)”, the #Peptides amounted to 3 peptides.

As to “RAB … LYSOSOMAL PROTEIN-LIKE 1 (from UniProt Q5EBL4 1-403)”, the #Peptides amounted to 7 peptides.

For …-TRNA … 2 (from UniProt O95363 1-451), the #Peptides was 13 peptides.

For the substance “COILED-COIL DOMAIN CONTAINING 50 (from UniProt Q8IVM0 2-306)”, the #Peptides came to 7 peptides.

For “RB1-INDUCIBLE COILED-COIL 1 (from UniProt Q8TDY2 1-1594)”, the #Peptides is 6 peptides.

Take “U2(RNU2) SMALL NUCLEAR RNA AUXILIARY FACTOR 1 (from UniProt Q01081 2-240)”: the #Peptides worked out at 1 peptides.

On to “PROTEIN PHOSPHATASE 1, … SUBUNIT, ALPHA ISOFORM (from UniProt P62136 2-330)”, for which the #Peptides is 2 peptides.

The substance “PYRUVATE KINASE, MUSCLE (from UniProt P14618 2-531)” returned a #Peptides of 13 peptides.

Consider “REGULATION OF NUCLEAR pre-mRNA DOMAIN CONTAINING 1A (from UniProt Q96P16 2-312)”, for which the #Peptides turned out to be 7 peptides.

For the substance “NON-POU DOMAIN CONTAINING, OCTAMER-BINDING (from UniProt Q15233 1-471)”, the #Peptides is 32 peptides.

On to “KERATIN 16 (FOCAL NON-EPIDERMOLYTIC PALMOPLANTAR KERATODERMA) (from UniProt P08779 1-473)”, for which the #Peptides was found to be 28 peptides.

As to “SRY (SEX … REGION Y)-BOX 6 (from UniProt P35712 1-828)”, the #Peptides worked out at 2 peptides.

The substance “ATAXIN 2-LIKE (from UniProt Q8WWM7 1-1075)” registered a #Peptides of 8 peptides.

The substance “MALIC ENZYME 2, NAD(+)-…, MITOCHONDRIAL (from UniProt P23368 19-584)” displayed a #Peptides of 20 peptides.

Consider “EXOSOME COMPONTENT 10 (from UniProt Q01780 1-885)”, for which the #Peptides stood at 9 peptides.

“TUBULIN, BETA 2C (from UniProt P68371 1-445)” had a #Peptides of 36 peptides.

The substance “HEAT SHOCK 70 kDa PROTEIN 9B (MORTALIN-2) (from UniProt P38646 47-679)” gave a #Peptides of 11 peptides.

The substance “ADP-… GLUCOKINASE (from UniProt Q9BRR6 23-497)” returned a #Peptides of 9 peptides.

Regarding “… CYCLASE 6 (from UniProt O43306 1-1168)”, the #Peptides came out at 4 peptides.

As to KERATIN 19 (from UniProt P08727 1-400), the #Peptides came to 3 peptides.

The substance “CORONIN, ACTIN BINDING PROTEIN, 1A (from UniProt P31146 2-461)” had a #Peptides of 2 peptides.

Regarding “CITRON (RHO-…, SERINE/THREONINE KINASE 21) (from UniProt O14578 1-2027)”, the #Peptides stood at 4 peptides.

As to “LECTIN, MANNOSE-BINDING, 1 (from UniProt P49257 31-510)”, the #Peptides amounted to 16 peptides.

For “LUC7L2 (CGI-59 PROTEIN) (from UniProt Q9Y383 1-392)”, the #Peptides amounted to 3 peptides.

Substance “DEHYDROGENASE E1 AND TRANSKETOLASE DOMAIN CONTAINING 1 (from UniProt Q96HY7 1-919)” showed a #Peptides of 25 peptides.

With …-… 9 (from UniProt Q86TI2 2-863), the #Peptides turned out to be 20 peptides.

Take “SIN3A-ASSOCIATED PROTEIN, 130 kDa (from UniProt Q9H0E3 1-1048)”: the #Peptides was found to be 5 peptides.

Regarding …-TRNA … 2 (from UniProt Q96I59 15-477), the #Peptides was found to be 2 peptides.

Take “SPLICING FACTOR 1 (from UniProt Q15637 2-639)”: the #Peptides came to 4 peptides.

With CYCLIN B2 (from UniProt O95067 1-398), the #Peptides was 2 peptides.

As for GEPHYRIN (from UniProt Q9NQX3 1-736), the #Peptides came out at 12 peptides.

For “PEROXIREDOXIN 3 (from UniProt P30048 62-256)”, the #Peptides came out at 4 peptides.

The substance “HETEROGENEOUS NUCLEAR RIBONUCLEOPROTEIN H1 (from UniProt P31943 1-449)” yielded a #Peptides of 9 peptides.

As to “FOUR AND A HALF LIM DOMAINS 1 (from UniProt Q13642 2-323)”, the #Peptides turned out to be 5 peptides.

Consider “MYELOPEROXIDASE (from UniProt P05164 165-745)”, for which the #Peptides was found to be 3 peptides.

“NUDIX (NUCLEOSIDE DIPHOSPHATE LINKED MOIETY X)-TYPE MOTIF 19 (from UniProt A8MXV4 1-375)” showed a #Peptides of 10 peptides.

“SODIUM CHANNEL, VOLTAGE-GATED, TYPE X, ALPHA (from UniProt Q9Y5Y9 1-1956)” came in with a #Peptides of 11 peptides.

Substance “ACTININ, ALPHA 3 (from UniProt Q08043 1-901)” came in with a #Peptides of 8 peptides.

Turning to “3-HYDROXY-3-METHYLGLUTARYL-COENZYME A SYNTHASE 1 (SOLUBLE) (from UniProt Q01581 1-520)”, the #Peptides stood at 4 peptides.

“SEC23 HOMOLOG A (S. …) (from UniProt Q15436 2-765)” yielded a #Peptides of 3 peptides.

Substance “UBR4 (ZINC FINGER, UBR1 TYPE 1) (from UniProt Q5T4S7 1-5183)” registered a #Peptides of 8 peptides.

Turning to “HTRA SERINE … 2 (from UniProt O43464 134-458)”, the #Peptides is 8 peptides.

The substance “CHD9 (HYPOTHETICAL PROTEIN BC022889) (from UniProt Q3L8U1 1-2897)” showed a #Peptides of 7 peptides.

On to “TRYPTOPHANYL TRNA … 2 (from UniProt Q9UGM6 19-360)”, for which the #Peptides was 5 peptides.

For “ZINC FINGER PROTEIN 703 (from UniProt Q9H7S9 2-590)”, the #Peptides was 2 peptides.

Substance “N-ACETYLGLUCOSAMINE KINASE (from UniProt Q9UJ70 2-344)” came in with a #Peptides of 4 peptides.

On to “ATP CITRATE LYASE (from UniProt P53396 1-1101)”, for which the #Peptides stood at 5 peptides.

The substance “ENGULFMENT AND CELL MOTILITY 1 (from UniProt Q92556 1-727)” showed a #Peptides of 3 peptides.

“PRE-MRNA CLEAVAGE FACTOR I, 59 kDa SUBUNIT (from UniProt Q8N684 1-471)”: the #Peptides was 6 peptides.

For “GLUTAMATE RECEPTOR, IONOTROPIC, N-METHYL D-… 2D (from UniProt O15399 28-1336)”, the #Peptides stood at 2 peptides.

With “TUBULIN, BETA 4 (from UniProt P04350 1-444)”, the #Peptides stood at 14 peptides.

“STATHMIN-LIKE 3 (from UniProt Q9NZ72 1-180)” displayed a #Peptides of 2 peptides.

The substance “CNDP … 2 (METALLO… M20 FAMILY) (from UniProt Q96KP4 2-475)” displayed a #Peptides of 6 peptides.

In turn, “ATP SYNTHASE, H+ TRANSPORTING, MITOCHONDRIAL F1 COMPLEX, ALPHA SUBUNIT 1, CARDIAC MUSCLE (from UniProt P25705 44-553)” yielded a #Peptides of 2 peptides.

As to HYPOTHETICAL PROTEIN FLJ22184, the #Peptides stood at 4 peptides.

Take “ISOCITRATE DEHYDROGENASE 3 (NAD+) ALPHA (from UniProt P50213 28-366)”: the #Peptides is 5 peptides.

RAVER1 (from UniProt Q8IY67 2-606): the #Peptides was 2 peptides.

For “HEAT SHOCK 70 kDa PROTEIN 1B (from UniProt P0DMV9 2-641)”, the #Peptides came to 15 peptides.

Regarding “C5orf25 (FLJ44216 PROTEIN) (from UniProt Q8NDZ2 1-872)”, the #Peptides was found to be 4 peptides.

For “SEC13-LIKE 1 (S. …) (from UniProt P55735 2-322)”, the #Peptides stood at 3 peptides.

Substance CYCLIN G1 (from UniProt P51959 1-295) gave a #Peptides of 2 peptides.

“AMINOACYLASE 1-LIKE 2 (from UniProt Q8IYS1 1-436)” returned a #Peptides of 13 peptides.

With “TRANSLOCASE OF INNER MITOCHONDRIAL MEMBRANE 50 HOMOLOG (from UniProt Q3ZCQ8 45-353)”, the #Peptides was 4 peptides.

“PRE-B-CELL COLONY … FACTOR 1 (from UniProt P43490 1-491)”: the #Peptides is 6 peptides.

Regarding “POLYMERASE (DNA-DIRECTED), DELTA … PROTEIN 2 (from UniProt Q9Y2S7 52-368)”, the #Peptides was 11 peptides.

For “…-3-PHOSPHATE DEHYDROGENASE (from UniProt P04406 2-335)”, the #Peptides is 3 peptides.

With “ATP-BINDING CASSETTE, SUB-FAMILY A (ABC1), MEMBER 13 (from UniProt Q86UQ4 1-5058)”, the #Peptides worked out at 2 peptides.

With “CHAPERONIN CONTAINING TCP1, SUBUNIT 7 (ETA) (from UniProt Q99832 1-543)”, the #Peptides is 11 peptides.

On to “RAN BINDING PROTEIN 10 (from UniProt Q6VN20 2-620)”, for which the #Peptides turned out to be 2 peptides.

“ALPHA-2-MACROGLOBULIN (from UniProt P01023 24-1474)” yielded a #Peptides of 2 peptides.

Consider “PROTEIN KINASE, AMP-…, GAMMA 1 NON-… SUBUNIT (from UniProt P54619 1-331)”, for which the #Peptides amounted to 12 peptides.

In the case of “… EXPRESSED 10 (from UniProt Q86TG7 1-708)”, the #Peptides came out at 3 peptides.

“KIAA0895 PROTEIN (from UniProt Q8NCT3 1-520)”: the #Peptides was 3 peptides.

For CYCLIN K (from UniProt O75909 1-580), the #Peptides is 1 peptides.

“CASEIN KINASE 2, ALPHA PRIME PO… (from UniProt P19784 1-350)”: the #Peptides turned out to be 3 peptides.

In turn, CORTACTIN (from UniProt Q14247 1-550) showed a #Peptides of 5 peptides.
